Assay results published in paper PMC4777826, “Crystal Structure of the CTP1L Endolysin Reveals How Its Activity Is Regulated by a Secondary Translation Product*^([image sbox.jpg])” (The Journal of Biological Chemistry, 2015).

Key:
[1] = molecular target: CTP1L endolysin K190S/G191S, ribosomal binding site knock-out (RBSKO) (bacteriophage ΦCTP1); assay: native MS; CBDHis titrated to 10 μM full-length CTP1L RBSKO at molar ratios 1:1, 1:2, 1:3 and 1:6 (full-length:CBDHis), 150 mM ammonium acetate pH 7.4; ratios of species from simulated peaks, three measurements
[2] = molecular target: CBDHis, CTP1L(195-274) with a C-terminal His tag (bacteriophage ΦCTP1); assay: native MS; nano-ESI of each purified sample by itself (wild-type gene products, CBDHis, RBSKO mutants), 150 mM ammonium acetate pH 7.4
[3] = molecular target: CD27L endolysin RBSKO mutant (E181S/G182S) (bacteriophage (targets Clostridium difficile)) (UniProt B6SBV8); assay: as above
[4] = molecular target: CTP1L endolysin, full-length (wild type) (bacteriophage ΦCTP1); assay: as above
[5] = molecular target: CTP1L endolysin, full-length (wild type) (bacteriophage ΦCTP1); assay: native MS; nano-ESI of the sample made from the codon-optimised CTP1L gene with the silent C→G back mutation (less truncated CBD made), 150 mM ammonium acetate pH 7.4
[6] = molecular target: truncated C-terminal cell wall binding domain of CTP1L (secondary translation product) (bacteriophage ΦCTP1); assay: native MS; nano-ESI of each purified sample by itself (wild-type gene products, CBDHis, RBSKO mutants), 150 mM ammonium acetate pH 7.4
[7] = molecular target: the molecule itself; assay: as above

Q: With “CBDHis, CTP1L(195-274) with a C-terminal His tag (domain or fragment)” as the molecule, how does the ratio of species, 1:1 heterodimer (full-length:CBDHis 1:1) (ratio (total 1.0)) [1] read?
A: 0.26

Q: And the ratio of species, 1:1 heterodimer (full-length:CBDHis 1:2) (ratio (total 1.0)) [1]?
A: 0.29

Q: And the ratio of species, 1:1 heterodimer (full-length:CBDHis 1:3) (ratio (total 1.0)) [1]?
A: 0.27

Q: And the ratio of species, 1:1 heterodimer (full-length:CBDHis 1:6) (ratio (total 1.0)) [1]?
A: 0.31

Q: And the ratio of species, 1 FLCTP1L: 3 CBDHis heterotetramer (full-length:CBDHis 1:1) (ratio (total 1.0)) [1]?
A: 0.09

Q: What about the ratio of species, 1 FLCTP1L: 3 CBDHis heterotetramer (full-length:CBDHis 1:2) (ratio (total 1.0)) [1] of the same molecule?
A: 0.19

Q: And the ratio of species, 1 FLCTP1L: 3 CBDHis heterotetramer (full-length:CBDHis 1:3) (ratio (total 1.0)) [1]?
A: 0.27

Q: What about the ratio of species, 1 FLCTP1L: 3 CBDHis heterotetramer (full-length:CBDHis 1:6) (ratio (total 1.0)) [1] of the same molecule?
A: 0.38

Q: What about the ratio of species, 2 FLCTP1L: 2 CBDHis heterotetramer (full-length:CBDHis 1:1) (ratio (total 1.0)) [1] of the same molecule?
A: 0.3

Q: What about the ratio of species, 2 FLCTP1L: 2 CBDHis heterotetramer (full-length:CBDHis 1:2) (ratio (total 1.0)) [1] of the same molecule?
A: 0.32

Q: And the ratio of species, 2 FLCTP1L: 2 CBDHis heterotetramer (full-length:CBDHis 1:3) (ratio (total 1.0)) [1]?
A: 0.26

Q: And the ratio of species, 2 FLCTP1L: 2 CBDHis heterotetramer (full-length:CBDHis 1:6) (ratio (total 1.0)) [1]?
A: 0.17

Q: What about the ratio of species, free FLCTP1L monomer (full-length:CBDHis 1:1) (ratio (total 1.0)) [1] of the same molecule?
A: 0.4

Q: And the ratio of species, free FLCTP1L monomer (full-length:CBDHis 1:2) (ratio (total 1.0)) [1]?
A: 0.2

Q: And the ratio of species, free FLCTP1L monomer (full-length:CBDHis 1:3) (ratio (total 1.0)) [1]?
A: 0.2

Q: What about the ratio of species, free FLCTP1L monomer (full-length:CBDHis 1:6) (ratio (total 1.0)) [1] of the same molecule?
A: 0.14

Q: And the stoichiometry N [2]?
A: 2

Q: Which stoichiometry N [3] does the source give for “CD27L endolysin RBSKO mutant (E181S/G182S) (from UniProt B6SBV8 1-270) (enzyme)” here?
A: 2

Q: Which ratio of species, free FLCTP1L monomer (wild-type sample) (ratio (total 1.0)) [4] does the source give for “truncated C-terminal cell wall binding domain of CTP1L (secondary translation product)” here?
A: 0.03

Q: Which ratio of species, 1:1 heterodimer (C→G sample) (ratio (total 1.0)) [5] does the source give for “truncated C-terminal cell wall binding domain of CTP1L (secondary translation product) (domain or fragment)” here?
A: 0.09

Q: And the ratio of species, 2 FLCTP1L: 2 CBD heterotetramer (C→G sample) (ratio (total 1.0)) [5]?
A: 0.62

Q: What about the ratio of species, free FLCTP1L monomer (C→G sample) (ratio (total 1.0)) [5] of the same molecule?
A: 0.28

Q: And the stoichiometry N [6]?
A: 4

Q: What about the ratio of species, 1:1 heterodimer (wild-type sample) (ratio (total 1.0)) [4] of the same molecule?
A: 0.12

Q: And the ratio of species, 1 FLCTP1L: 3 CBD heterotetramer (wild-type sample) (ratio (total 1.0)) [4]?
A: 0.14

Q: What about the ratio of species, 2 FLCTP1L: 2 CBD heterotetramer (wild-type sample) (ratio (total 1.0)) [4] of the same molecule?
A: 0.72

B1: CD27L endolysin, full-length (wild type) (enzyme, UniProt B6SBV8 1-270, looked up)
chain: MKICITVGHSILKSGACTSADGVVNEYQYNKSLAPVLADTFRKEGHKVDVIICPEKQFKTKNEEKSYKIPRVNSGGYDLLIELHLNASNGQGKGSEVLYYSNKGLEYATRICDKLGTVFKNRGAKLDKRLYILNSSKPTAVLIESFFCDNKEDYDKAKKLGHEGIAKLIVEGVLNKNINNEGVKQMYKHTIVYDGEVDKISATVVGWGYNDGKILICDIKDYVPGQTQNLYVVGGGACEKISSITKEKFIMIKGNDRFDTLYKALDFINR
notes: CD27L endolysin, a bacteriophage endolysin that targets Clostridium difficile; The wild-type sample also holds the truncated CBD; also called FLCD27L; source: E. coli BL21(DE3), pET15b, purified (Ni-NTA)
Q: With B1 as the molecule, how does the “stoichiometry N” value [7] read?
A: 2
